Test results: patent publication US20090042849

Legend:
[1] = target: T1, cytosolic phospholipase A2, P50393
T1 chain: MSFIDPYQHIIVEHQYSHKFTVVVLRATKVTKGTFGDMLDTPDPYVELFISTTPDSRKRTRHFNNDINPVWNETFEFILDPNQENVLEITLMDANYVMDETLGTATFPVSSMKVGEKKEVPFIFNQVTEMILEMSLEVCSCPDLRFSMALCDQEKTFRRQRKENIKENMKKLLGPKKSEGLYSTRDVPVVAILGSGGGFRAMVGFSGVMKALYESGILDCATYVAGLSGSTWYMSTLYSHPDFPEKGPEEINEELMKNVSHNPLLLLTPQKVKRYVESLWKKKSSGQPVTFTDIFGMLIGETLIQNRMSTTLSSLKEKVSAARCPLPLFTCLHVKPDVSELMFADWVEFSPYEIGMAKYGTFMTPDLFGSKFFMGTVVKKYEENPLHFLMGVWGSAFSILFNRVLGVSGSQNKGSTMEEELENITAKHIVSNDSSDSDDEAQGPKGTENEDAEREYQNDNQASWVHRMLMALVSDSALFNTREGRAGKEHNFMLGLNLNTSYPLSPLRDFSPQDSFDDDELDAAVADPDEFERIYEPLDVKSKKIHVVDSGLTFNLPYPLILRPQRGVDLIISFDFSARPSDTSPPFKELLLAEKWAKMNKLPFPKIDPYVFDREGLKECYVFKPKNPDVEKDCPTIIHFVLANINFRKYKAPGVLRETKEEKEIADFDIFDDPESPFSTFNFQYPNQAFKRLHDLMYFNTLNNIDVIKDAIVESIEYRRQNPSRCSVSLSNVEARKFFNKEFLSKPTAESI

cycloxygenase-2, P35355 = target: T2, cycloxygenase-2, P35355
T2 chain: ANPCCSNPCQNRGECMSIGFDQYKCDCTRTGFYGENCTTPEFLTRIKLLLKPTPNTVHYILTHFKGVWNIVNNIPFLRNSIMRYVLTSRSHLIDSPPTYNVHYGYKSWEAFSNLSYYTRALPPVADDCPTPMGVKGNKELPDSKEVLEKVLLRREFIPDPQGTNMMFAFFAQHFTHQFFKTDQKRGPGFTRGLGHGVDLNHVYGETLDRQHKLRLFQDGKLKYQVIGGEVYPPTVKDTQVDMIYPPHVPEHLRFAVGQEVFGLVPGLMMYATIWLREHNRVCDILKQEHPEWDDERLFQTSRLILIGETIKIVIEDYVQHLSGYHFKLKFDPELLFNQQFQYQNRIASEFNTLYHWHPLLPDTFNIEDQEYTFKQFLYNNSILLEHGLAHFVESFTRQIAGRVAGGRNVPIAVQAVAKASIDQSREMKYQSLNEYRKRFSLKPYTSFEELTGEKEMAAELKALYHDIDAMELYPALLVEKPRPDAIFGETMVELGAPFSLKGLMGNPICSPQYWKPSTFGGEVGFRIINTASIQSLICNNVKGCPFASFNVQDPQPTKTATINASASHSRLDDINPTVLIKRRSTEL

B1: 5-lipoxygenase (protein)
chain: MPSYTVTVATGSQWFAGTDDYIYLSLIGSAGCSEKHLLDKAFYNDFERGGRDSYDVTVDEELGEIYLVKIEKRKYRLHDDWYLKYITLKTPHDYIEFPCYRWITGEGEIVLRDGCAKLARDDQIHILKQHRRKELETRQKQYRWMEWNPGFPLSIDAKCHKDLPRDIQFDSEKGVDFVLNYSKAMENLFINRFMHMFQSSWHDFADFEKIFVKISNTISERVKNHWQEDLMFGYQFLNGCNPVLIKRCTELPKKLPVTTEMVECSLERQLSLEQEVQEGNIFIVDYELLDGIDANKTDPCTHQFLAAPICLLYKNLANKIVPIAIQLNQTPGEKNPIFLPTDSKYDWLLAKIWVRSSDFHIHQTITHLLRTHLVSEVFGIAMYRQLPAVHPLFKLLVAHVRFTIAINTKAREQLNCEYGLFDKANATGGGGHVQMVQRAVQDLTYSSLCFPEAIKARGMDNTEDIPYYFYRDDGLLVWEAIQSFTTEVVSIYYEDDQVVEEDQELQDFVKDVYVYGMRGRKASGFPKSIKSREKLSEYLTVVIFTASAQHAAVNFGQYDWCSWIPNAPPTMRAPPPTAKGVVTIEQIVDTLPDRGRSCWHLGAVWALSQFQENELFLGMYPEEHFIEKPVKEAMIRFRKNLEAIVSVIAERNKNKKLPYYYLSPDRIPNSVAI
B1 was tested, and the LTB4 production [1] was 5-lipoxygenase co-immunoprecipitated with cPLA2 (FIG. 10) and metabolized arachidonic acid, generated by cPLA2, into LTB4 and the 15ELXA production (cycloxygenase-2, P35355) was “it interacted with COX2 in the cytosolic fraction (FIG. 11) to generate 15ELXA (FIG. 9A)”.
